The source of these data is article doi:10.1101/2021.12.01.470822 (bioRxiv, 2021).

First the molecules themselves.
T1: RD-ABD1 of PLS2 (human, UniProt P13796 1-375)
T1 sequence: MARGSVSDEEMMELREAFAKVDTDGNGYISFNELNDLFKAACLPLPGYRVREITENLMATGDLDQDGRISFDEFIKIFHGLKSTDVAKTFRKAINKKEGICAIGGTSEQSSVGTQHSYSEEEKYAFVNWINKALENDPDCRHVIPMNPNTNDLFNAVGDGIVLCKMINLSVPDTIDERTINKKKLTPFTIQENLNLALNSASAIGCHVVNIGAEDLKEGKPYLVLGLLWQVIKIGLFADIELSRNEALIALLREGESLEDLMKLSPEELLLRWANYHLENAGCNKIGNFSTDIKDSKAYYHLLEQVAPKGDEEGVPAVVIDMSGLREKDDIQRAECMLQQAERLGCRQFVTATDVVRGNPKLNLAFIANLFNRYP

B1: ABD1 of PLS2 (domain or fragment)
chain: EGICAIGGTSEQSSVGTQHSYSEEEKYAFVNWINKALENDPDCRHVIPMNPNTNDLFNAVGDGIVLCKMINLSVPDTIDERTINKKKLTPFTIQENLNLALNSASAIGCHVVNIGAEDLKEGKPYLVLGLLWQVIKIGLFADIELSRNEALIALLREGESLEDLMKLSPEELLLRWANYHLENAGCNKIGNFSTDIKDSKAYYHLLEQVAPKGDEEGVPAVVIDMSGLREKDDIQRAECMLQQAERLGCRQFVTATDVVRGNPKLNLAFIANLFNRYP
B2: full-length PLS2 (plastin 2), wild type (natural protein)
chain: MARGSVSDEEMMELREAFAKVDTDGNGYISFNELNDLFKAACLPLPGYRVREITENLMATGDLDQDGRISFDEFIKIFHGLKSTDVAKTFRKAINKKEGICAIGGTSEQSSVGTQHSYSEEEKYAFVNWINKALENDPDCRHVIPMNPNTNDLFNAVGDGIVLCKMINLSVPDTIDERTINKKKLTPFTIQENLNLALNSASAIGCHVVNIGAEDLKEGKPYLVLGLLWQVIKIGLFADIELSRNEALIALLREGESLEDLMKLSPEELLLRWANYHLENAGCNKIGNFSTDIKDSKAYYHLLEQVAPKGDEEGVPAVVIDMSGLREKDDIQRAECMLQQAERLGCRQFVTATDVVRGNPKLNLAFIANLFNRYPALHKPENQDIDWGALEGETREERTFRNWMNSLGVNPRVNHLYSDLSDALVIFQLYEKIKVPVDWNRVNKPPYPKLGGNMKKLENCNYAVELGKNQAKFSLVGIGGQDLNEGNRTLTLALIWQLMRRYTLNILEEIGGGQKVNDDIIVNWVNETLREAKKSSSISSFKDPKISTSLPVLDLIDAIQPGSINYDLLKTENLNDDEKLNNAKYAISMARKIGARVYALPEDLVEVNPKMVMTVFACLMGKGMKRV
B3: ABD2 of PLS2, unlabeled (domain or fragment)
chain: DIDWGALEGETREERTFRNWMNSLGVNPRVNHLYSDLSDALVIFQLYEKIKVPVDWNRVNKPPYPKLGGNMKKLENCNYAVELGKNQAKFSLVGIGGQDLNEGNRTLTLALIWQLMRRYTLNILEEIGGGQKVNDDIIVNWVNETLREAKKSSSISSFKDPKISTSLPVLDLIDAIQPGSINYDLLKTENLNDDEKLNNAKYAISMARKIGARVYALPEDLVEVNPKMVMTVFACLMGKGMKRV
B4: fluorescein-labeled ABD2 of PLS2 (domain or fragment)
chain: B3 chain
modifications: fluorescein-5-maleimide (FM) label

Test [1] has as its target T2, F-actin (skeletal muscle actin) ( (rabbit or chicken skeletal …, UniProt P68135 1-377)). The experiment in a line: co-sedimentation.
Test [2] deals with T2, F-actin (skeletal muscle actin). Put plainly: fluorescence polarisation.
Test [3] concerns the target T1, RD-ABD1 of PLS2. Put plainly: fluorescence polarisation.
The test “ABD1 of PLS2” addresses B1. Put plainly: fluorescence polarisation.
Test [4] has as its target T1, RD-ABD1 of PLS2. Put plainly: fluorescence polarisation. The source holds these as a separate data set.
The target of test [5] is T2, F-actin (skeletal muscle actin). Put plainly: fluorescence polarisation. The source holds these as a separate data set.

Where two headings read alike, the source gives them in different places.

Take B1: in test [1], the Kd is 2.6 ± 1 µM. Still for that read-out and setting: the same measure for B2: 5.7 ± 1 µM.

For the molecule B3, the Kd in test [2] came out at 3.6 ± 0.3 nM; with RD-ABD1 of PLS2 [3], 2.9 ± 0.5 nM; with ABD1 of PLS2 it was 11.4 ± 0.7 nM; in the test with RD-ABD1 of PLS2 [4], 3 ± 0.9 nM. Molecule B4 yielded a Kd in test [5] of 9.9 ± 3.7 nM.
